From US20230106715A1 (BIOSION, published 2023)
Changes are numbered by the printed parent chain.

T1: mouse Siglec15-his protein (mouse)
T1 construct: In house made
T1 chain: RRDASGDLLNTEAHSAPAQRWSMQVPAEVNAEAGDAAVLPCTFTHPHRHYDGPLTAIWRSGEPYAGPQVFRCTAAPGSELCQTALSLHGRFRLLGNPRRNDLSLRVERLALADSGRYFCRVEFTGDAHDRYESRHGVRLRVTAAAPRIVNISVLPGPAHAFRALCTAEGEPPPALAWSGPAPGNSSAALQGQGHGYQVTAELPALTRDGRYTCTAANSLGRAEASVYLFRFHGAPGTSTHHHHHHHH

T2: recombinant human Siglec15-his protein (human, UniProt Q6ZMC9 20-263)
T2 construct: In house made; Biotin-labeled in the capture ELISA
T2 sequence: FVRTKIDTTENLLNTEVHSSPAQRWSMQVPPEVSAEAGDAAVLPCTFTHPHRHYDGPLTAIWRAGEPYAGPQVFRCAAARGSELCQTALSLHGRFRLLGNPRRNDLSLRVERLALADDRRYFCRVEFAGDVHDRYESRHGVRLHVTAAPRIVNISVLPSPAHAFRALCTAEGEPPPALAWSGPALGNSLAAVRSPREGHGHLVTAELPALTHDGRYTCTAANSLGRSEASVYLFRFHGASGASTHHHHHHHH

B1: anti-Siglec15 benchmark (ch5G12) (antibody, human IgG1, kappa, V domains shown)
VH: QVQLQQPGAELVKPGASVKMSCKASGYTFTSYWITWVIQRPGQGLEWIGDIYCGSDTMHYNEKFKNKATLTVDTSSSTAYMQLSSLTSEDSAVYYCARWWDYGSSYDYFDYWGQGTTLTVSS
VL: DIKMTQSPSSMYASLGERVTITCKASQDINSYLSWFQQKPGKSPKTLIYRANRLVDGVPSRFSGSGSGQDYSLTISSLEYEDMGIYYCLQYDEFPYTFGGGTKLEIKR
notes: ch5G12 (US 20190202912A1); also called BM; Siglec15-ch5G9
B2: A2A5C7E8 (antibody, V domains shown)
VH: EVQLVQSGAEVKKPGESLRISCKGSGYSFTTYWISWVRQMPGKGLEWMGLIDPSDSYTNYSPSFQGHVTISTDKSISTAYLQWSSLKASDTAMYYCARGGYYGSEEDYWGQGTLVTVSS
VL: EIVLTQSPGTLSLSPGERATLSCRASQSVSSSRLAWFQQKSGQAPRLLIFDASSRATGIPDRFSGSGSGTDFTLTISRLEPEDFAVYYCQQYGSSPRTFGQGTKVEFK
notes: Fully human antibody from transgenic mouse hybridoma; also called A2A5C7E8-1
B3: A1E10G7H9 (antibody, V domains shown)
VH: QVQLQESGPGLVKPSGTLSLTCAVSGGSISSSNWWHWVRQPPGKGLEWIGEIYHSGNTNYKPSLKSRVTISVDKSKNQFSLKLSSVTAADTAVYYCARDEGNGWSNAFDIWGQGTMVTVSS
VL: ENVLTQSPGTLSLSPGERVTLSCRASQSVSSSYLAWYQQKPGQAPRFLIYGASGGATGIPDRFSGSGSGTDFTLTISRLEPEDFAVYYCQQYGSSPITFGQGTRLEIK
notes: Fully human antibody from transgenic mouse hybridoma
B4: A2A5C7E8-2 (antibody, human IgG1, kappa, V domains shown)
VH: B2 VH with D55E
VL: EIVLTQSPGTLSLSPGERATLSCRASQSVSSSRLAWFQQKSGQAPRLLIFDASSRATGIPDRFSGSGSGTDFTLTISRLEPEDFAVYYCQQYGSSPRTFGQGTKVEFKR
notes: Variant of A2A5C7E8 modified in VH CDR2 (X1 = E)
B5: A2A5C7E8-3 (antibody, human IgG1, kappa, V domains shown)
VH: B2 VH with Q65K
VL: B4 VL
notes: Variant of A2A5C7E8 modified in VH CDR2 (X2 = K)

Target: T1, mouse Siglec15-his protein
Experiment: indirect ELISA on coated mouse Siglec15-his
Description: The anti-Siglec15 antibodies' cross-reactions to cynomolgus or mouse Siglec15 proteins were measured. Briefly, 96-well micro plates were coated with 100 μl of 2 μg/ml cynomolgus Siglec15-his protein (in house made with SEQ ID NO: 21), or 2 μg/ml mouse Siglec15-his protein (in house made with SEQ ID NO: 22) in carbonate/bicarbonate buffer (pH 9.6) for 2 hours at 37° C. ELISA plates were washed once with wash buffer (PBS+0.05% v/v Tween-20, PBST) and then blocked with 200 μl/well blocking buffer (5% w/v non-fatty milk in PBST) overnight at 4° C. Plates were washed 4 times and incubated with 100 μl serially diluted anti-Siglec15 antibodies of the disclosure or controls (starting at 66.7 nM, 5-fold serial dilution in PBST with 2.5% w/v non-fatty milk) for 40 minutes at 37° C. ELISA plates were washed 4 times again and incubated with Peroxidase AffiniPure Goat Anti-Human IgG, F(ab)₂ fragment specific (1:5000 dilution in PBST buffer, Jackson Immunoresearch, Cat #109-035-097, 100 μl/well) for 40 minutes at 37° C. After a final wash, plates were incubated with 100 μl/well TMB (Innoreagents, Cat #TMB-S-002). The reaction was stopped 4 minutes later at room temperature with 50 μl 1M H₂SO₄, and the absorbance of each well was read on a microplate reader using dual wavelength mode with 450 nm for TMB and 630 nm as the reference wavelength, then the OD (450-630) values were plotted against antibody concentration. Data was analyzed using Graphpad Prism software and EC₅₀ values were reported.

Row | EC50 | Binder
1 | 0.361 nM | B1
2 | 0.26 nM | B2
3 | 0.329 nM | B3

Target: T3, human Siglec15-Fc protein (human)
T3 construct: In house made; also called recombinant human Siglec15 protein with human IgG1 Fc at the C-terminus
T3 sequence (chain, as listed by the source limits assumed): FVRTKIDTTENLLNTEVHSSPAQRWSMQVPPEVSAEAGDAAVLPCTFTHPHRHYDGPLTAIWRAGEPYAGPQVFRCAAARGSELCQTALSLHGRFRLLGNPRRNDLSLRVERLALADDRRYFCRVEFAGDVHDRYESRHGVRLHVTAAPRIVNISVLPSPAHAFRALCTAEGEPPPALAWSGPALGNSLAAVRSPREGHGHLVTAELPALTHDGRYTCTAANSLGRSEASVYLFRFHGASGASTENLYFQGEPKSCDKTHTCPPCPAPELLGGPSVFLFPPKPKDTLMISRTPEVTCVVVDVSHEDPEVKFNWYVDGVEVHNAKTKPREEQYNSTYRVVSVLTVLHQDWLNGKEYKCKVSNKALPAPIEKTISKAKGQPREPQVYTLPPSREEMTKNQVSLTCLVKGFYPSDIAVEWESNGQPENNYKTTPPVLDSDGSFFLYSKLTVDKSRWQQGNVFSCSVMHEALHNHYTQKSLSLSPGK
Experiment: competitive ELISA: coated human Siglec15-Fc, blocked ligand biotin-labeled human LRRC4C-Fc
Description: Serially diluted anti-Siglec15 antibodies or the controls (starting at 66.67 nM with a 5-fold serial dilution) in PBST with 2.5% w/v non-fatty milk were added to the Siglec15-Fc bound plates, 100 μl per well, and incubated with the human Siglec15-Fc protein at 37° C. for 40 minutes. Plates were washed 4 times again using wash buffer, then added and incubated for 40 minutes at 37° C. with 100 μl/well 290 ng/ml biotin-labeled human LRRC4C-Fc protein (prepared in-house with SEQ ID NO: 23). Plates were washed again using wash buffer. Thereafter, the plates were added with 100 μl/well streptavidin conjugated HRP (1:5000 dilution in PBST buffer, Jackson Immunoresearch, Cat #016-030-084) and incubated for 40 minutes at 37° C. Plates were washed again using wash buffer. Finally, TMB was added and the reaction was stopped using 1M H₂SO₄, and the absorbance of each well was read on a microplate reader using dual wavelength mode with 450 nm for TMB and 630 nm as the reference wavelength, then the OD (450-630) values were plotted against antibody concentration. Data was analyzed using Graphpad Prism software and IC₅₀ values were reported.

Row | IC50 | Binder
4 | 0.674 nM | B1
5 | 0.394 nM | B2
6 | 0.446 nM | B4
7 | 0.546 nM | B5

Target: T2, recombinant human Siglec15-his protein
Experiment: capture ELISA, captured antibody, biotin-labeled human Siglec15-his in solution
Description: Briefly, 96-well plates were coated with 100 μl of 2 μg/ml AffiniPure Goat Anti-Human IgG F(ab′)₂ fragment specific (Jackson Immuno Research, Cat #109-005-097) in PBS for 2 hours at 37° C. Plates were washed once with wash buffer (PBS+0.05% v/v Tween-20, PBST) and then blocked with 200 μl blocking buffer (5% w/v non-fatty milk in PBST) overnight at 4° C. Plates were washed 4 times and respectively incubated with 100 μl serially diluted anti-Siglec15 antibodies of the disclosure, the benchmark and hIgG (human immunoglobulin (pH4) for intravenous injection, Hualan Biological Engineering Inc.), 5-fold dilution in 2.5% w/v non-fatty milk in PBST starting at 66.7 nM, for 40 minutes at 37° C., and then washed 4 times again. Plates containing captured antibodies were incubated with 100 μl biotin-labeled human Siglec15-his protein (in house made with SEQ ID NO: 20, 145 ng/ml in 2.5% w/v non-fatty milk in PBST) for 40 minutes at 37° C., washed 4 times, and incubated with streptavidin conjugated HRP (1:10000 dilution in PBST, Jackson Immuno Research, Cat #016-030-084, 100 μl/well) for 40 minutes at 37° C. After a final wash, plates were incubated with 100 μl/well ELISA substrate TMB (Innoreagents, Cat #TMB-S-002). The reaction was stopped in 4 minutes at room temperature with 50 μl/well 1M H₂SO₄, and the absorbance of each well was read on a microplate reader using dual wavelength mode with 450 nm for TMB and 630 nm as the reference wavelength, then the OD (450-630) values were plotted against antibody concentration. Data was analyzed using Graphpad Prism software and EC₅₀ values were reported.

Row | EC50 | Binder
8 | 2.93 nM | B1
9 | 0.232 nM | B2
10 | 0.252 nM | B3
